{"source": "patent US5534260A", "about": "“Percutaneous drug delivery system” (priority 1994, dated 1996)", "molecules": {"B1": {"name": "papain: proteolytic enzyme; preferred enzyme, readily available from Sigma Chemical Company (protein, UniProt P00784 134-345, looked up)", "Papain": "IPEYVDWRQKGAVTPVKNQGSCGSCWAFSAVVTIEGIIKIRTGNLNEYSEQELLDCDRRSYGCNGGYPWSALQLVAQYGIHYRNTYPYEGVQRYCRSREKGPYAAKTDGVRQVQPYNEGALLYSIANQPVSVVLEAAGKDFQLYRGGIFVGPCGNKVDHAVAAVGYGPNYILIKNSWGTGWGENGYIRIKRGTGNSYGVCGLYTSSFYPVKN"}}, "key": {"[1]": {"assay": "Skin damage / irritation by papain pretreatment", "settings": "in words"}, "[2]": {"assay": "Fourier Transform Infrared spectroscopy of stratum corneum", "set-up": "species or system mouse", "settings": "for Absorbance in protein areas, peak position: Table I; for FTIR peak, Amide III / FTIR peak, Shoulder Beta sheet / FTIR peak, Alpha helix peak: Table IV; for FTIR peak, Amide III: untreated 1244; for FTIR peak, Shoulder Beta sheet: untreated 1267; for FTIR peak, Alpha helix peak: untreated 1295; for Symmetric CH peak position / Asymmetric CH peak position: Table V; for Symmetric CH peak position: normal SC 2848.3; for Asymmetric CH peak position: normal SC 2916.5; for Length of 70% line, symmetric line / Length of 70% line, asymmetric line: Table VI; for Length of 70% line, symmetric line: normal SC 8.6; for Length of 70% line, asymmetric line: normal SC 17.5", "description": "A. Comparisons of normal stratum corneum (from mouse skin) to stratum corneum treated with a 0.09% concentration of papain for 24 hours was performed using Fourier Transform Infrared spectroscopy (FTIR). […] It is postulated that a shift from a random form of protein to the more organized beta sheet structure occurs. The alpha-helix structures of skin protein could be fractionated, uncoiled, or both.\nA comparison of symmetric and asymmetric CH stretch bands was then made. These two bands represent lipid structure and would show any changes in the stratum corneum lipids caused by the papain.\nB. Azone™ was tested as a permeation enhancer with and without the presence of papain."}, "[3]": {"assay": "Enhancement of acetylcholine chloride penetration through hairless mouse skin at pH 7.4 (Example III)", "assay_type": "in vitro ADME", "description": "A percutaneous permeation enhancer having the following formula was prepared: […]\nThe effect of the percutaneous enhancer, as prepared in Example II above, was measured on the penetration of the quaternary compound acetylcholine chloride through hairless mouse skin at pH 7.4. […] The data below indicates a potentiating or synergistic effect in combining the agents for use as an enhancer.\nEnhancement effect of 0.0465 mg/ml Sigma papain alone and in\ncombination with 2% Azone™ and 15% propylene glycol on the\npenetration of acetylcholine chloride through hairless mouse"}, "[4]": {"assay": "Effect of non-enzyme components in admixture with papain on penetration of 14C-TEAB (Example IV)"}, "[5]": {"settings": "acetylcholine chloride, pH 7.4, pretreated skin"}, "[6]": {"settings": "14C-TEAB through pretreated skin (n = 1 for components alone, n = 2 combinations, n = 3 papain 0.0465 mg/ml 24 hours)"}}, "note": "“Also recorded” adds a separate entry of the source."}
{"molecule": "B1", "values": [{"measurement": "skin damage / irritation", "setting": "[1]", "result": "increased damage to the skin and can cause bleeding; also recorded: damage the skin, possibly leading to bleeding"}, {"measurement": "recovery after removal of papain", "setting": "[2]; 24 hours", "result": "partial recovery"}, {"measurement": "recovery after removal of papain", "setting": "[2]; 48 hours", "result": "nearly complete recovery"}, {"measurement": "Absorbance in protein areas, peak position", "setting": "[2]; untreated SC 1244", "result": 1236.6, "unit": "cm⁻¹"}, {"measurement": "Absorbance in protein areas, peak position", "setting": "[2]; untreated SC 1267", "result": 1263.7, "unit": "cm⁻¹"}, {"measurement": "Absorbance in protein areas, peak position", "setting": "[2]; untreated SC 1295", "result": 1288.4, "unit": "cm⁻¹"}, {"measurement": "Absorbance in protein areas, peak position", "setting": "[2]; untreated SC 1400.5", "result": 1403.8, "unit": "cm⁻¹"}, {"measurement": "Absorbance in protein areas, peak position", "setting": "[2]; untreated SC 1456", "result": 1464.7, "unit": "cm⁻¹"}, {"measurement": "Absorbance in lipid areas, symmetric CH peak position", "setting": "[2]; Table II, untreated 2848.3", "result": 2850, "unit": "cm⁻¹"}, {"measurement": "Absorbance in lipid areas, asymmetric CH peak position", "setting": "[2]; Table II, untreated 2916.5", "result": 2920, "unit": "cm⁻¹"}, {"measurement": "Length of the 70% line, symmetric CH", "setting": "[2]; Table III, untreated 8.6", "result": 9.1, "unit": "cm⁻¹"}, {"measurement": "Length of the 70% line, asymmetric CH", "setting": "[2]; Table III, untreated 17.5", "result": 17.5, "unit": "cm⁻¹"}, {"measurement": "FTIR peak, Amide III", "setting": "[2]; 24 hr recovery after papain", "result": 1242.4, "unit": "cm⁻¹"}, {"measurement": "FTIR peak, Shoulder Beta sheet", "setting": "[2]; 24 hr recovery after papain", "result": 1271.8, "unit": "cm⁻¹"}, {"measurement": "FTIR peak, Alpha helix peak", "setting": "[2]; 24 hr recovery after papain", "result": 1301.7, "unit": "cm⁻¹"}, {"measurement": "FTIR peak, Amide III", "setting": "[2]; 48 hr recovery after papain", "result": 1243.2, "unit": "cm⁻¹"}, {"measurement": "FTIR peak, Shoulder Beta sheet", "setting": "[2]; 48 hr recovery after papain", "result": 1268.4, "unit": "cm⁻¹"}, {"measurement": "FTIR peak, Alpha helix peak", "setting": "[2]; 48 hr recovery after papain", "result": 1296.5, "unit": "cm⁻¹"}, {"measurement": "FTIR peak, Amide III", "setting": "[2]; papain treated", "result": 1236, "unit": "cm⁻¹"}, {"measurement": "FTIR peak, Shoulder Beta sheet", "setting": "[2]; papain treated", "result": 1262, "unit": "cm⁻¹"}, {"measurement": "FTIR peak, Alpha helix peak", "setting": "[2]; papain treated", "result": 1288, "unit": "cm⁻¹"}, {"measurement": "Symmetric CH peak position", "setting": "[2]; 48 hr recovery SC", "result": 2849.3, "unit": "cm⁻¹"}, {"measurement": "Asymmetric CH peak position", "setting": "[2]; 48 hr recovery SC", "result": 2916.5, "unit": "cm⁻¹"}, {"measurement": "Symmetric CH peak position", "setting": "[2]; papain treated SC", "result": 2848.5, "unit": "cm⁻¹"}, {"measurement": "Asymmetric CH peak position", "setting": "[2]; papain treated SC", "result": 2916.3, "unit": "cm⁻¹"}, {"measurement": "Length of 70% line, symmetric line", "setting": "[2]; 48 hr recovery SC", "result": 10.5, "unit": "cm⁻¹"}, {"measurement": "Length of 70% line, asymmetric line", "setting": "[2]; 48 hr recovery SC", "result": 19.3, "unit": "cm⁻¹"}, {"measurement": "Length of 70% line, symmetric line", "setting": "[2]; papain treated SC", "result": 9.1, "unit": "cm⁻¹"}, {"measurement": "Length of 70% line, asymmetric line", "setting": "[2]; papain treated SC", "result": 17.5, "unit": "cm⁻¹"}, {"measurement": "change in lipid structure / CH stretch bands of stratum corneum", "setting": "[2]; in words", "result": "no change in lipid structure"}, {"measurement": "change in protein FTIR areas of stratum corneum", "setting": "[2]; in words", "result": "significant changes occurring in the amide III, beta sheet, and alpha-helix formations of the stratum corneum cells"}, {"measurement": "E (enhancement effect)", "setting": "[3]; acetylcholine chloride, pH 7.4", "result": 88.4}, {"measurement": "J (flux)", "setting": "[3]; [5]", "result": "5.67 × 10^-4 mg/cm^2 /sec"}, {"measurement": "P (permeability)", "setting": "[3]; [5]", "result": 2.83, "unit": "×10⁻⁶ cm/s"}, {"measurement": "increase in penetration of acetylcholine chloride", "setting": "[3]; pH 7.4, pretreatment", "result": "eighty-eight"}, {"measurement": "J (flux)", "setting": "[4]; [6]", "result": "(1.33 ± 0.48) × 10^-4 mg cm^-2 s^-1"}, {"measurement": "P (permeability)", "setting": "[4]; [6]", "result": "(1.63 ± 0.59) × 10^-7 cm s^-1"}, {"measurement": "E (enhancement effect)", "setting": "[4]; 14C-TEAB, n = 1 components alone, n = 2 combinations, n = 3 papain", "result": 32.93}, {"measurement": "drug penetration", "setting": "pH 7.4", "result": "greater drug penetration"}, {"measurement": "increase in absorption of TEAB", "setting": "skin pretreated with papain", "result": "3,346%"}]}
